Measured values reported in patent US20130225488A1 (CADILA HEALTHCARE, published 2013).
Where no end group is shown, it is not given here. [ ]: non-standard residue; d: D form. αMePhe(2-F) = C[C@](N)(Cc1ccccc1F)C(=O)O; Ac3c = NC1(C(=O)O)CC1

B1: Seq. ID. No. 36: H-(ACP)-QGT-(α-Me-2F-Phe)-TSD-Bip(OMe)-Bip(2CF3) (peptide)
peptide: HXQGTXTSDXX
modifications: not fully specified; ACP at 2; α-Me-2F-Phe at 6; Bip(OMe) at 10; Bip(2CF3) at 11

Target: Human GLP-1 receptor (human, UniProt P43220 24-463)
Assay: cell-based or functional assay

Chain of Human GLP-1 receptor (P43220 24-463): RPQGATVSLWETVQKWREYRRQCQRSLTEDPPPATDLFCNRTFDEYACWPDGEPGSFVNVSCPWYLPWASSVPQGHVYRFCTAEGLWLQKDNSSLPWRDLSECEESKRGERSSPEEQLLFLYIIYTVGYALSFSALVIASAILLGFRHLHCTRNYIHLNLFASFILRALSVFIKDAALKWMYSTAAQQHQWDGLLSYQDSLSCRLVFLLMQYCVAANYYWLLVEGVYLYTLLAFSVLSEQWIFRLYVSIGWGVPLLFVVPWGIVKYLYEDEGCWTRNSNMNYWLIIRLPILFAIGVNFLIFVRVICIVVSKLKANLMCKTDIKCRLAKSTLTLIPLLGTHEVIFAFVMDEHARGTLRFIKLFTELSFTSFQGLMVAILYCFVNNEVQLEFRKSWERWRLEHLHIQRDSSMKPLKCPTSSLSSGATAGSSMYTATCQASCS

Row | Binder | cAMP release, % activity with respect to control; test compound 1 nM [%] | cAMP release, % activity with respect to control; test compound 10 nM [%] | cAMP release, % activity with respect to control; test compound 100 nM [%] | cAMP release, % activity with respect to control; test compound 1 µM [%] | cAMP release, % activity with respect to control; test compound 10 µM [%]
1 | HAQGT[αMePhe(2-F)]TSD[Bip(OMe)][Bip(2F)] [Seq. ID. No. 27: HAQGT-(α-Me-2F-Phe)-TSD-Bip(OMe)-Bip(2F)] | 82 | 87 | 92 | 99 | 99
2 | HXQGTXTSDXX (Aib at 2; α-Me-2F-Phe at 6; Bip(OMe) at 10; Bip(2Me) at 11) [Seq. ID. No. 29: H-Aib-QGT-(α-Me-2F-Phe)-TSD-Bip(OMe)-Bip(2Me)] | 99 | 99 | 99 | 99 | 99
3 | HXQGTXTSDXX (Aib at 2; α-Me-2F-Phe at 6; Bip(OMe) at 10; Bip(Pyr) at 11) [Seq. ID. No. 30: H-Aib-QGT-(α-Me-2F-Phe)-TSD-Bip(OMe)-Bip(Pyr)] | 93 | 99 | 99 | 99 | 99
4 | HAQGT[αMePhe(2-F)]TSD[Bip(OMe)][Bip(2Me)] [Seq. ID. No. 25: HAQGT-(α-Me-2F-Phe)-TSD-Bip(OMe)-Bip(2Me)] | 38 | 77 | 85 | 94 | 97
5 | HSQGTFTSD[Bip(OMe)][Bip(Pyr)] (not fully specified (C-terminus); printed as HSQGTFTSD-Bip(OMe)-Bip(Pyr)) [Seq. ID. No. 6: HSQGTFTSD-Bip(OMe)-Bip(Pyr)] | 39 | 80 | 88 | 96 | 99
6 | HSQGTXTSDXX (α-Me-2F-Phe at 6; Bip(OMe) at 10; Bip(2Me) at 11) [Seq. ID. No. 21: HSQGT-(α-Me-2F-Phe)-TSD-Bip(OMe)-Bip(2Me)] | 39 | 80 | 86 | 95 | 98
7 | HSQGTXTSDXX (α-Me-2F-Phe at 6; Bip(OMe) at 10; Bip(2CF3) at 11) [Seq. ID. No. 24: HSQGT-(α-Me-2F-Phe)-TSD-Bip(OMe)-Bip(2CF3)] | 41 | 82 | 87 | 95 | 98
8 | HAQGT[αMePhe(2-F)]TSD[Bip(OMe)][Bip(2CF3)] [Seq. ID. No. 28: HAQGT-(α-Me-2F-Phe)-TSD-Bip(OMe)-Bip(2CF3)] | 55 | 88 | 92 | 99 | 99
9 | HSQGTXTSDXX (α-Me-2F-Phe at 6; Bip(OMe) at 10; Bip(2F) at 11) [Seq. ID. No. 23: HSQGT-(α-Me-2F-Phe)-TSD-Bip(OMe)-Bip(2F)] | 46 | 85 | 90 | 99 | 99

Target: Human glucagon receptor (human, UniProt P47871 26-477)
Assay: cell-based or functional assay

Row | Binder | cAMP production with saturated glucagon peptide; test compound 1 nM [pmol/ml/µg prt] | cAMP production with saturated glucagon peptide; test compound 10 nM [pmol/ml/µg prt] | cAMP production with saturated glucagon peptide; test compound 100 nM [pmol/ml/µg prt] | cAMP production with saturated glucagon peptide; test compound 10 µM [pmol/ml/µg prt] | cAMP production with saturated glucagon peptide; test compound '1 nM' [pmol/ml/µg prt]
10 | HAQGT[αMePhe(2-F)]TSD[Bip(OMe)][Bip(2F)] [Seq. ID. No. 27: HAQGT-(α-Me-2F-Phe)-TSD-Bip(OMe)-Bip(2F)] | 14 | 11 | 7 | 0 | 3
11 | HSQGTXTSDXX (α-Me-2F-Phe at 6; Bip(OMe) at 10; Bip(Pyr) at 11) [Seq. ID. No. 22: HSQGT-(α-Me-2F-Phe)-TSD-Bip(OMe)-Bip(Pyr)] | 21 | 19 | 18 | 16 | 18
12 | HXQGTXTSDXX (Aib at 2; α-Me-2F-Phe at 6; Bip(OMe) at 10; Bip(2Me) at 11) [Seq. ID. No. 29: H-Aib-QGT-(α-Me-2F-Phe)-TSD-Bip(OMe)-Bip(2Me)] | 10 | 8 | 6 | 1 | 4
13 | HAQGTFTSD[Bip(OMe)][Bip(2CF3)] [Seq. ID. No. 12: HAQGTFTSD-Bip(OMe)-Bip(2CF3)] | 5 | 3 | 0 | 0 | 0
14 | H[Ac3c]QGTFTSD[Bip(OMe)][Bip(2CF3)] (not fully specified) [Seq. ID. No. 20: H-(ACP)-QGTFTSD-Bip(OMe)-Bip(2CF3)] | 5 | 2 | 0 | 0 | 0
15 | HXQGTXTSDXX (Aib at 2; α-Me-2F-Phe at 6; Bip(OMe) at 10; Bip(Pyr) at 11) [Seq. ID. No. 30: H-Aib-QGT-(α-Me-2F-Phe)-TSD-Bip(OMe)-Bip(Pyr)] | 9 | 6 | 5 | 0 | 3
16 | HAQGT[αMePhe(2-F)]TSD[Bip(OMe)][Bip(2Me)] [Seq. ID. No. 25: HAQGT-(α-Me-2F-Phe)-TSD-Bip(OMe)-Bip(2Me)] | 18 | 16 | 12 | 6 | 8
17 | HSQGTXTSDXX (α-Me-2F-Phe at 6; Bip(OMe) at 10; Bip(2Me) at 11) [Seq. ID. No. 21: HSQGT-(α-Me-2F-Phe)-TSD-Bip(OMe)-Bip(2Me)] | 19 | 17 | 15 | 12 | 14
18 | HAQGTFTSD[Bip(OMe)][Bip(Pyr)] [Seq. ID. No. 10: HAQGTFTSD-Bip(OMe)-Bip(Pyr)] | 15 | 12 | 8 | 2 | 4
19 | HSQGTXTSDXX (α-Me-2F-Phe at 6; Bip(OMe) at 10; Bip(2CF3) at 11) [Seq. ID. No. 24: HSQGT-(α-Me-2F-Phe)-TSD-Bip(OMe)-Bip(2CF3)] | 4 | 2 | 0 | 0 | 0
20 | HAQGT[αMePhe(2-F)]TSD[Bip(OMe)][Bip(2CF3)] [Seq. ID. No. 28: HAQGT-(α-Me-2F-Phe)-TSD-Bip(OMe)-Bip(2CF3)] | 4 | 3 | 0 | 0 | 0
21 | HSQGTXTSDXX (α-Me-2F-Phe at 6; Bip(OMe) at 10; Bip(2F) at 11) [Seq. ID. No. 23: HSQGT-(α-Me-2F-Phe)-TSD-Bip(OMe)-Bip(2F)] | 4 | 2 | 2 | 0 | 0
22 | B1 | 3 | 1 | 0 | 0 | 0
23 | HAQGT[αMePhe(2-F)]TSD[Bip(OMe)][Bip(Pyr)] [Seq. ID. No. 26: HAQGT-(α-Me-2F-Phe)-TSD-Bip(OMe)-Bip(Pyr)] | 15 | 12 | 8 | 2 | 4
24 | H[Ac3c]QGTFTSD[Bip(OMe)][Bip(2F)] [Seq. ID. No. 19: H-(ACP)-QGTFTSD-Bip(OMe)-Bip(2F)] | 5 | 3 | 1 | 0 | 0
